Experimental data: patent publication US20020077284A1 (WHITEHEAD INSTITUTE FOR BIOMEDICAL RESEARCH, published 2002)
Positions of bridges follow the written chain, without caps; N, C: chain ends. Non-standard residues stand in square brackets, D forms with d.

Experiments:
[1] = target: T1, HIV-1 envelope protein gp41 subunit (HXB2 envelope), N-helix coiled-coil (HIV-1 (HXB2), UniProt P04578 512-856); assay: cell-based or functional assay
[2] = target: T2, N36 peptide of HIV-1 gp41 (HIV-1); assay: circular dichroism thermal melt at 222 nm; 10 µM C34 peptide + 10 µM N36 in PBS pH 7.0
T2 construct: Synthetic peptide; forms the trimeric N36 coiled-coil of the N36/C34 complex

[3] = target: T1, HIV-1 envelope protein gp41 subunit …; assay: cell-based or functional assay; remark: listed apart in the source
[4] = target: T2, N36 peptide of HIV-1 gp41; assay: circular dichroism thermal melt of the N36/C34 variant complex

| Binder | Tm (apparent melting temperature of the N36/C34 complex) [2] [° C.] | Tm (apparent melting temperature of the N36/C34 complex) [4] [° C.] | IC50 values (nanomolar) for cell fusion [3] [nM] | IC50 values (nanomolar) for virus entry [3] [nM] | other results |
| --- | --- | --- | --- | --- | --- |
| Ac-WMEWDAEINNYTSLIHSLIEESQNQQEKNEQELL-NH2 (Position in gp41 numbering) [C34 peptide Arg^633→Ala] | 65 | – | – | – | IC50 (nM) cell fusion [1]: 0.76 nM; IC50 (nM) viral entry [1]: 2.6 nM |
| Ac-WMEWDREANNYTSLIHSLIEESQNQQEKNEQELL-NH2 (Position in gp41 numbering) [C34 peptide Ile^635→Ala] | 55 | – | – | – | IC50 (nM) cell fusion [1]: 0.96 nM; IC50 (nM) viral entry [1]: 4.1 nM; decrease in inhibitory activity against wildtype C34 [3]: ~2 fold |
| Ac-WMEADREINNYTSLIHSLIEESQNQQEKNEQELL-NH2 (Position in gp41 numbering) [C34 peptide Trp^631→Ala] | 37 | – | – | – | decrease in inhibitory activity against wildtype C34 [3]: ~30 fold |
| Ac-WMEGDREINNYTSLIHSLIEESQNQQEKNEQELL-NH2 (Position in gp41 numbering) [C34 peptide Trp^631→Gly] | – | 35 | 25 | 38 | – |
| Ac-WMELDREINNYTSLIHSLIEESQNQQEKNEQELL-NH2 [C34 peptide Trp^631→Leu] | – | 50 | 3.2 | 5.3 | – |
| Ac-WMEFDREINNYTSLIHSLIEESQNQQEKNEQELL-NH2 [C34 peptide Trp^631→Phe] | – | 59 | 1.6 | 3.61 | – |
| Ac-WMEVDREINNYTSLIHSLIEESQNQQEKNEQELL-NH2 [C34 peptide Trp^631→Val] | – | 43 | 4.5 | 13 | – |
| Ac-[dK][dK]G[dA][dC][dE][dL][dL]G[dW][dE][dW][dA][dW][dL][dC][dA][dA]-NH2 (disulfide 5-16 (inferred)) [D10pep5] | – | – | – | – | IC50, syncytia assay [3]: ~6000 nM |
| Ac-[dK][dK]G[dA][dC][dE][dA][dR][dH][dR][dE][dW][dA][dW][dL][dC][dA][dA]-NH2 (disulfide 5-16 (inferred)) [D10pep1a] | – | – | – | – | IC50 for inhibition of syncytia formation, against D10pep1 [3]: ~2 fold |
| Ac-[dK][dK][dK][dK]G[dA][dC][dE][dL][dL]G[dW][dE][dW][dA][dW][dL][dC][dA][dA]-NH2 (disulfide 7-18 (inferred)) [D10pep5a] | – | – | – | – | IC50 for inhibition of syncytia formation, against D10pep5 [3]: ~2 fold |
